According to paper PMC9505709, “Valorization of Biomasses from Energy Crops for the Discovery of Novel Thermophilic Glycoside Hydrolases through Metagenomic Analysis” (International Journal of Molecular Sciences, 2022):

Biological target: Aglu1, α-glucosidase of family GH31 from an unknown hyperthermophilic archaeon (unknown hyperthermophilic archaeon (metagenome; family Sulfolobaceae, unclassified genus))
Test: SEC; gel filtration on Superose 6 10/300, isocratic 20 mM Tris HCl pH 8.0; markers thyroglobulin, apoferritin, BSA, cytochrome C; native mass 462 kDa against 80 kDa for the monomer

- stoichiometry N: 6
Substance: Aglu1, α-glucosidase of family GH31 from an unknown hyperthermophilic archaeon (enzyme)
